Laboratory results taken from article PMC7478360.

Columns and labels:
[1] = biological target: T1, thrombin (human (plasma), UniProt P00734;P00734 328-363;364-622); experiment: graphene FET, real-time drain current
[2] = biological target: T1, thrombin; experiment: graphene FET, Dirac voltage shift
[3] = biological target: T1, thrombin; experiment: graphene FET, Dirac voltage shift; remark: listed apart in the source

Binder | Kd [1] | Kd [2] | binding result [3]
CCATCTCCACTTGGTTGGTGTGGTTGG (structured_DNA, 5' NH2-(CH2)6, amide-coupled to PBASE on graphene) [anti-thrombin DNA aptamer] | 0.732 nM | 0.376 nM | 
ATCAGGGCTAAAGAGTGCAGAGTTACTTAG (ssDNA, 5' NH2-(CH2)6, amide-coupled to PBASE on graphene) [anti-lysozyme DNA aptamer] |  |  | no binding
